# Measured values taken from US20100285583A1, “COMPOUNDS AND METHODS FOR INHIBITING PLATELET AGGREGATION” (priority 2009, published 2010).
# B1: N-PTB: N-terminal phosphotyrosine binding domain (residues 1-241) of human Disabled-2 (Dab2), expressed as GST-fusion in E. coli (protein)
# chain: MSNEVETSATNGQPDQQAAPKAPSKKEKKKGPEKTDEYLLARFKGDGVKYKAKLIGIDDVPDARGDKMSQDSMMKLKGMAARGRSQGQHKQRIWVNISLSGIKIIDEKTGVIEHEHPVNKISFIARDVTDNRAFGYVCGGEGQHQFFAIKTGQQAEPLVVDLKDLFQVIYNVKKKEEEKKKIEEASKAVENGSEALMILDDQTNKLKSGVDQMDLFGDMSTPPDLNSPTESKDILLVDLNS
# How the values were obtained:
# [1] = Liposome-binding assay, PtdIns(4,5)P2 liposomes; conditions: liposomes with PtdIns(4,5)P2
# Experimental: (§1) Lipid stocks including sulfatides, PE, PS, and PtdIns(4,5)P2 were dissolved in chloroform:methanol:water (1:2;0.8, 65:35:8, 65:35:4 and 65:35:8, respectively), whereas cholesterol and PC were dissolved in chloroform:methanol (1:1). Sulfatides liposomes were prepared in a weight ratio of 1:1:1:4 of PC:PE:cholesterol:sulfatides. PtdIns(4,5)P2 liposomes were prepared in a percent ratio of 50:20:10:10:10 of PC:PE:PS:cholesterol:PtdIns(4,5)P2. Controls were prepared by adjusting the ratios with PC. Lipid films were generated by lyophilization overnight and hydrated in 20 mM Tris-HCl (pH 6.8), 100 mM NaCl, 2 mM dithiothreitol (DTT) at 1 mg/mL and freeze-thawed 3 times. Liposomes were sonicated and further pelleted and suspended in 4 mg/mL. Ten μg of protein were incubated with 125 μg of total lipids for 20 min at RT. Liposome-bound and free-protein samples were separated by centrifugation and analyzed by SDS-PAGE. Bands were quantified using AlphaImager, and the percentage of total protein each fraction contained was calculated from the total protein.
# [2] = Surface plasmon resonance, immobilized sulfatide liposomes; conditions: SPR, estimated; read-out: dissociation constant (KD), sulfatide binding
# Experimental: Surface plasmon resonance (SPR) binding experiments were performed on a BIAcore X instrument using L1 sensorchips coated with ˜0.5 mM of mixed sulfatides or PtdIns(4,5)P2 size calibrated liposomes. N-PTB domain or its mutants binding experiments were performed in a degassed solution containing 10 mM Tris-HCI (pH 7.4) and 150 mM NaCl. This buffer was used during equilibration, association and dissociation phases. Proteins were added to this buffer at the indicated concentrations. Regeneration of the phospholipid bilayer after dissociation phase was carried out using 20 mM NaOH. For competition SPR, increasing molar amounts of dioctanoyl PtdIns(4,5)P2 were preincubated with 5 μM N-PTB for 20 min at room temperature. The entire reaction was then exposed to an L1 sensorchip containing immobilized sulfatide liposomes (˜0.5 mM).
# [3] = Liposome-binding assay, sulfatide liposomes; conditions: liposomes with sulfatides
# Experimental: as §1
# [4] = tested on: platelet and leukocyte mixtures; assay: Platelet-leukocyte aggregation under flow; format: cell-based, human; conditions: 10 μM, with sulfatide liposomes
# Experimental: (§2) The microfluidic device consisted in a simple straight channel 500 μm wide, 50 μm deep and 3.62 cm long. A silicon master stamp was fabricated on a <100> silicon substrate following a previously described process (Ross et al. Ann. Rev. Med. 1987, 38:71-79). Flow was driven using a micro-syringe pump (Cole-Parmer) with a 1 mL syringe connected to the channel inlet by 30 cm of Cole-Parmer gauge 20 Teflon tubing. After priming the system with the sample, the pump was set to 0.05 mL/h (equivalent to an average velocity of 0.55 mm/sec in the channel), which is in the range of in vivo blood velocity (0.1-1.5 mm/sec (9)) and causes a shear rate of 70 sec−1. This flow rate was maintained for 1 min prior to the experiments. Platelets flowing through the channel were monitored using an inverted light microscope (DMI 6000B, Leica Microsystems) equipped with a digital camera (DFC420, Leica Microsystems).
# To quantify the ability of N-PTB to block platelet-leukocyte binding under physiological flow conditions, platelet and leukocyte mixtures were flown through a microfluidics device, as described above, and aggregation was measured using light microscopy. Untreated cell suspensions ([…]) were flown for 10 minutes and the channel was scanned for leukocyte adhesion and inclusion into platelet aggregates and representative pictures were taken (FIG. 18A-B).
# Washed platelets = assay: Platelet aggregation under flow assay (microfluidics channel); format: cell-based, human; conditions: 10 μM, with sulfatide liposomes, shear rate 70 s^−1
# Experimental: as §2
# Platelet aggregation is mediated by αIIbβ3 integrin interactions with fibrinogen and fibrin linking platelets together (Furie et al., J. Clin. Invest. 2005; 115 (12): 3355-3362; and Andrews et al., Thromb Res. 2004; 114:447-453). P-selectin links aggregated platelets together stabilizing clot formation (Merten 2001). Sulfatides stimulate increased levels of both αIIbβ3 integrin and P-selectin expression on platelets (Merten 2005). […]
molecule,measurement,setting,value
B1,"PtdIns(4,5)P2 binding",[1],"bound to PtdIns(4,5)P2-containing liposomes"
same,Kd,[2],~1930 nM
same,sulfatide binding,[3],bound to sulfatide-enriched liposomes
same,effect on leukocyte adhesion and platelet-leukocyte aggregates under flow,[4],great reduction in observed leukocyte adhesion as well as platelet-leukocyte aggregates
same,effect on leukocyte adhesion and platelet-leukocyte aggregates under flow,[4]; listed as N-PTB^4M,unable to affect the adhesion and aggregation of leukocytes
same,inhibition of sulfatide induced platelet aggregation under flow,Washed platelets,returned to the size of untreated platelets
same,inhibition of sulfatide induced platelet aggregation under flow,Washed platelets; listed as N-PTB^4M,limited inhibition of platelet aggregate size but not adhesion
